This is an account of results in article PMC7990132.

For orientation: Kd means the constant that tells how readily two partners part at equilibrium. Read a low Kd as higher affinity.

The assay deals with FcγRI (UniProt P12314). Put plainly: BLI. (In BLI a coated tip is dipped into the sample, and binding shifts an interference pattern.)
Chain of UniProt P12314 (P12314 16-374): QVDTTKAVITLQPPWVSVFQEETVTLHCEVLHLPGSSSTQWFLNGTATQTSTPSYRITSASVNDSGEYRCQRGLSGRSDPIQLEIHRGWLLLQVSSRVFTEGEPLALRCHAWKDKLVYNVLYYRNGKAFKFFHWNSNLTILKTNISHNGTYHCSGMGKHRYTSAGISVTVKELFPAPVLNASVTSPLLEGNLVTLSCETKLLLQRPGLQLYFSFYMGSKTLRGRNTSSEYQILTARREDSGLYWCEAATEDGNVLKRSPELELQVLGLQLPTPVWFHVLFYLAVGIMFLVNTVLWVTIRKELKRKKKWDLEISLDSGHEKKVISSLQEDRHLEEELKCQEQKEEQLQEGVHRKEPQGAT

In turn, Sintilimab (antibody) yielded a Kd of 10 nM.
